Drawing on paper PMC11339409, this text covers stoichiometry N for two substances.

Assay [1] has as its target LUJV glycoprotein-1 (GP1) (Lujo virus (LUJV)). Description: cryo-EM structure.
The target in assay [2] is LUJV glycoprotein-2 (GP2) (Lujo virus (LUJV)). In words: cryo-EM structure.

One may read the stoichiometry N as a count of units in the complex or per binding partner. As for “LUJV glycoprotein-1 (GP1) (domain or fragment)”, in assay [1], the stoichiometry N was determined as 3. On to “LUJV glycoprotein-2 (GP2) (domain or fragment)”, for which the stoichiometry N in assay [2] worked out at 3.
